Biological target: ACE2-Fc-TD
Experiment: SPR

Row | Substance | Half-life (ln2/kd) (s (from ln2/kd)) | Kd
1 | SARS-CoV-2 S1 domain, B.1.1.7 (alpha variant) (from UniProt P0DTC2 14-681) (domain or fragment) | 1190 | 1.73 nM
2 | SARS-CoV-2 S1 domain, B.1.351 (beta variant) (from UniProt P0DTC2 14-681) (domain or fragment) | 454 | –
3 | SARS-CoV-2 S1 domain, D614G (from UniProt P0DTC2 14-681) (domain or fragment) | – | 6.91 nM

Reference: publication PMC8349458
